Molecular target: CD26 protein (recombinant human CD26) (human) (UniProt P27487)
Assay: BLI (Octet QKe), CD26 amine-coupled on AR2G sensor, antibody at 181.8 nM

Response: 0.0395
B1: 17G108 (anti-CD26-CD3 chimeric bispecific antibody derived from No. 160 mouse antibody) (bispecific antibody)
chain: DIVMTQAAPSVPVTPGESVSISCRSSKSLLHSNGNTYLYWFLQRPGQSPQLLISQMSNLASGIPDRFSGSGSGTAFTLRISRVEAEDVGVYYCMQHLEYPFTFGSGTKLEIKGGGGSGGGGSGGGGSEVQLQQSGAELVKPGASVKLSCTASGFNIKDNYMNWVKQRPEQGLEWIGRIDPANGNPKYDPKFQGKATITADTSSNTAYLQLSSLTSEDTAVYYCTRWIYYYGSRYEWYFDVWGAGTTVTVSSGGGGSDVQLVQSGAEVKKPGASVKVSCKASGYTFTRYTMHWVRQAPGQGLEWIGYINPSRGYTNYADSVKGRFTITTDKSTSTAYMELSSLRSEDTATYYCARYYDDHYCLDYWGQGTTVTVSSGGGGSGGGGSGGGGSDIVLTQSPATLSLSPGERATLSCRASQSVSYMNWYQQKPGKAPKRWIYDTSKVASGVPARFSGSGSGTDYSLTINSLEAEDAATYYCQQWSSNPLTFGGGTKVEIK
